Results: publication PMC3275592, “Structural and Functional Insights into Endoglin Ligand Recognition and Binding” (PLoS ONE, 2012)

T1: HG-EndoEC, full length extracellular region of human endoglin (residues 22-587), high glycosylation (human, UniProt P17813 22-587, mature, branched sugars (high glycosylation); putative Asn glycosylation sites Asn88, Asn102, Asn121, Asn134 and Asn307 (Asn306 in Figure 1))
T1 construct: endoglin, human, extracellular region, residues 22-587; EndoEC dimerized to some extent through a disulfide bond; also called endoglin ectodomain; source: HEK293 FreeStyle (HEK293F), transfected, secreted, purified (HisTrap, gel filtration)
T1 sequence (looked up): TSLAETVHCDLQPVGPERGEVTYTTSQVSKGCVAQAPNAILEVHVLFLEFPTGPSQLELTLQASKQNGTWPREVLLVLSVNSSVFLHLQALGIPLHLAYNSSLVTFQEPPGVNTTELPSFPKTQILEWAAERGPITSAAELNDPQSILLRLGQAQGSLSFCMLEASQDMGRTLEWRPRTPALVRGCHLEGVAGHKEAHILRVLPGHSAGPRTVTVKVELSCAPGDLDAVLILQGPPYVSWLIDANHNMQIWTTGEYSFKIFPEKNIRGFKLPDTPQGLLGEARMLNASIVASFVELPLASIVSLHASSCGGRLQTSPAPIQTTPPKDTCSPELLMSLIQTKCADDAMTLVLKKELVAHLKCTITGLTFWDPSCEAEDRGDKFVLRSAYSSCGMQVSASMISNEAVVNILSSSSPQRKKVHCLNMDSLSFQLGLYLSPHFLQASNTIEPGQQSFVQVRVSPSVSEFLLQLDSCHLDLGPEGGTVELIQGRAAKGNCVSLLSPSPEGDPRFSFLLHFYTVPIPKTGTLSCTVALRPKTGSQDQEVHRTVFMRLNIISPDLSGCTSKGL

T2: Endo338, endoglin orphan domain construct (residues 22-337) (human, UniProt P17813 22-337, Man5NAG2 glycans (5 modelled at their attachment sites))
T2 construct: also called Endoglin338; OD; source: HEK293S GnTI- suspension cells, transfected, secreted, purified (HisTrap, gel filtration); not shown: 6xHis, C-terminal, kept
T2 sequence (looked up): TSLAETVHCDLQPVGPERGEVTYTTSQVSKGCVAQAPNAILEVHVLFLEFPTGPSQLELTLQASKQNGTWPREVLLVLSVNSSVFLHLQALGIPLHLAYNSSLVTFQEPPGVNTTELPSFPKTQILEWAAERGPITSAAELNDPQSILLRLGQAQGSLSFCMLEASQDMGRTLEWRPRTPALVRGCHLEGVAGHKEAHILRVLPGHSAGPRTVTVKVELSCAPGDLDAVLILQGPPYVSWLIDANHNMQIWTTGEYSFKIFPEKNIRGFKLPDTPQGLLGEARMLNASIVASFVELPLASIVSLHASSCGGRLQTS

B1: Bone morphogenetic protein 9 (BMP-9) (ligand, human, UniProt Q9UK05 320-429, looked up)
chain: SAGAGSHCQKTSLRVNFEDIGWDSWIIAPKEYEAYECKGGCFFPLADDVTPTKHAIVQTLVHLKFPTKVGKACCVPTKLSPISVLYKDDMGVPTLKYHYEGMSVAECGCR
notes: BMP-9, human, carrier-free protein from R&D Systems; Immobilised on a CM5 chip by amine coupling; also called Bone Morphogenetic Protein (BMP)-9; source: bought: R&D Systems (carrier free)
B2: LG-EndoEC, full length extracellular region of human endoglin (residues 22-587), low glycosylation (domain or fragment, UniProt P17813 22-587, looked up)
chain: T1 sequence (looked up)
modifications: short, well defined sugars of the type Man5NAG2 (low glycosylation); putative Asn glycosylation sites Asn88, Asn102, Asn121, Asn134 and Asn307 (Asn306 in Figure 1)
notes: endoglin, human, extracellular region, residues 22-587; Dimeric and monomeric species seen on gels; also called endoglin ectodomain; source: HEK293S GnTI- suspension cells, transfected, secreted, purified (HisTrap, gel filtration); not shown: 6xHis, C-terminal, kept

How the values were obtained:
[1] = molecular target: Endo362, endoglin orphan domain construct with the linker region (residues 22-361 or 22-362) (human) (UniProt P17813); experiment: SDS-PAGE under reducing and non-reducing conditions with anti-His6 western blot; 10% SDS gel, 0.5 µg protein; with or without 10 mM DTT (1 h, 65°C); boiled at 95°C for 5 min; disulfide-linked dimer
[2] = molecular target: Bone morphogenetic protein 9 (BMP-9) (human) (UniProt Q9UK05); experiment: SPR; Biacore T100; BMP-9 immobilised on CM5 chip by amine coupling; analyte alone at six concentrations 12.5-400 nM; 25°C; 10 mM HEPES pH 7.4, 150 mM NaCl, 3 mM EDTA, 0.05% P20; 1:1 binding model, global fit; apparent KD; triplicates
[3] = molecular target: T1, HG-EndoEC, full length extracellular …; experiment: SPR; Biacore T100; endoglin coinjected with a constant saturating concentration of HG-ALK1EC over immobilised BMP-9; 25°C; 10 mM HEPES pH 7.4, 150 mM NaCl, 3 mM EDTA, 0.05% P20; 1:1 binding model; details: both partners purified
[4] = molecular target: B2; experiment: as above; details: both partners purified
[5] = molecular target: T1, HG-EndoEC, full length extracellular …; experiment: SPR; Biacore T100; BMP-9 immobilised on CM5 chip by amine coupling; analyte alone at six concentrations 12.5-400 nM; 25°C; 10 mM HEPES pH 7.4, 150 mM NaCl, 3 mM EDTA, 0.05% P20; 1:1 binding model, global fit; apparent KD; triplicates; details: both partners purified
[6] = molecular target: T2, Endo338, endoglin orphan domain …; experiment: as above; details: both partners purified
[7] = molecular target: B2; experiment: as above; details: both partners purified
[8] = molecular target: the molecule itself; experiment: SDS-PAGE under reducing and non-reducing conditions with anti-His6 western blot; 10% SDS gel, 0.5 µg protein; with or without 10 mM DTT (1 h, 65°C); boiled at 95°C for 5 min; disulfide-linked dimer

Endo362, endoglin orphan domain construct with the linker region (residues 22-361 or 22-362) (from UniProt P17813 22-361) (domain or fragment)
stoichiometry N [1]: 2
Kd [2]: 8.96 nM
koff [2]: 0.00108 s⁻¹
kon [2]: 120000 M⁻¹ s⁻¹

B1
Kd [3]: 14.7 nM
koff [3]: 0.00153 s⁻¹
kon [3]: 274000 M⁻¹ s⁻¹
Kd [4]: 3.27 nM
koff [4]: 0.000925 s⁻¹
kon [4]: 283000 M⁻¹ s⁻¹
Kd [5]: 9.94 nM
koff [5]: 0.00207 s⁻¹
kon [5]: 208000 M⁻¹ s⁻¹
Kd [6]: 276 nM
koff [6]: 0.254 s⁻¹
kon [6]: 914000 M⁻¹ s⁻¹
Kd [7]: 2.01 nM
koff [7]: 0.000891 s⁻¹
kon [7]: 442000 M⁻¹ s⁻¹

B2
stoichiometry N [8]: 2
